Results as given in patent US8008547B2, “Glyphosate-N-acetyltransferase (GAT) genes” (E.I. duPont de Nemours, priority 2000, dated 2011).
Where a chain is given by its changes, count along the chain named.

B1: SEQ ID NO: 436: GAT polypeptide (protein)
chain: MIEVKPINAEDTYEIRHRILRPNQPLEACMYETDLLGGTFHLGGYYQGKLISIASFHNAEHSELEGQKQYQLRGMATLEGYREQKAGSTLIRHAEELLRKKGADLLWCNARTSVSGYYEKLGFSEQGEVYDIPPVGPHILMYKKLA
modifications: 9C6
notes: GAT polypeptide
B2: SEQ ID NO: 276: GAT polypeptide (protein)
chain: B1 chain with Q47R, I51V, N58Q, S62P, V114A, E119K, I132T, A146T
modifications: 10_23F2
notes: GAT polypeptide
B3: SEQ ID NO: 437: GAT polypeptide (protein)
chain: B1 chain with M30K, Q47R, N58K, Q67E, K68E, E119K, V135I, A146T
modifications: 9H11
notes: GAT polypeptide
B4: SEQ ID NO: 274: GAT polypeptide (protein)
chain: B1 chain with M30K, Q47R, I51V, N58Q, S62P, Q67R, V114A, E119K, V135T, A146T
modifications: 10_1H3
notes: GAT polypeptide
B5: SEQ ID NO: 275: GAT polypeptide (protein)
chain: B1 chain with F40L, Q47R, N58Q, S62P, G80E, V114A, E119K, E128G, A146T
modifications: 10_20D10
notes: GAT polypeptide
B6: SEQ ID NO: 438: GAT polypeptide (protein)
chain: MIEVKPINAEDTYELRHKILRPNQPIEACMYESDLLRGAFHLGGFYRGKLISIASFHQAEHSDLEGQKQYQLRGMATLEGYRDQKAGSTLIKHAEEILRKRGADMLWCNARTTASGYYKKLGFSEQGEIFDTPPVGPHILMYKRLT
modifications: 0_4B10
notes: GAT polypeptide
B7: SEQ ID NO: 458: GAT polypeptide (protein)
chain: B6 chain with A28V, S62P, E65Q, T89S, E96Q, M105L, T113S, I129V, D131E
modifications: 11_3A11
notes: GAT polypeptide
B8: SEQ ID NO: 452: GAT polypeptide (protein)
chain: B6 chain with I26L, A28V, S33T, F45X, D63E, E65Q, T89S, E96Q, M105X, T113S
modifications: X: residue not identified in the source; ends and bridges not checked
notes: GAT polypeptide
B9: SEQ ID NO: 462: GAT polypeptide (protein)
chain: B6 chain with F40L, F45Y, D63E, E65Q, D83E, T89S, M105L, T113S, I129V, L145I
modifications: 11_3C3
notes: GAT polypeptide
B10: SEQ ID NO: 456: GAT polypeptide (protein)
chain: B6 chain with K18R, Y31F, F45Y, E65Q, T89S, K92R, E96Q, M105L, T113S
modifications: 10_4G5
notes: GAT polypeptide
B11: SEQ ID NO: 450: GAT polypeptide (protein)
chain: B6 chain with K18R, F45Y, D63E, E65Q, Y81F, D83E, K92R, E96Q, T113S, L145I
modifications: 0_6F2
notes: GAT polypeptide
B12: SEQ ID NO: 463: GAT polypeptide (protein)
chain: B6 chain with I2L, Y31F, R47G, D83E, K92R, M105L, T113S, L145I
modifications: 11_3C6
notes: GAT polypeptide
B13: SEQ ID NO: 439: GAT polypeptide (protein)
chain: B6 chain with R47G, E96Q, I97L, T113S, I129V, D131E, R144K, L145I
modifications: 0_5B11
notes: GAT polypeptide
B14: SEQ ID NO: 454: GAT polypeptide (protein)
chain: B6 chain with I2L, K18R, Y31F, D63E, E65Q, D83E, T89S, K92R, T113S, D131E
modifications: 10_4F2
notes: GAT polypeptide
B15: SEQ ID NO: 442: GAT polypeptide (protein)
chain: B6 chain with E65Q, T89S, K92R, E96Q, M105L, T113S
modifications: 0_5B8
notes: GAT polypeptide
B16: SEQ ID NO: 444: GAT polypeptide (protein)
chain: B6 chain with K18R, E65Q, D83E, K92R, E96Q, I97L, M105L, T113S, K120R, I129V
modifications: 0_5D11
notes: GAT polypeptide
B17: SEQ ID NO: 451: GAT polypeptide (protein)
chain: B6 chain with S33T, R47G, D83E, K92R, R101K, D104N, M105L, T113S, I129V
modifications: 0_6H9
notes: GAT polypeptide
B18: SEQ ID NO: 440: GAT polypeptide (protein)
chain: MLEVKPINAEDTYELRHRILRPNQPIEACMYETDLLRGAFHLGGFYRGKLISIASFHQAEHSELQGQKQYQLRGMATLEGYRDQKAGSSLIKHAEQLLRKRGADLLWCNARTSASGYYKKLGFSEQGEVFDTPPVGPHILMYKRIT
modifications: 0_5B3
notes: GAT polypeptide
B19: SEQ ID NO: 446: GAT polypeptide (protein)
chain: B18 chain with L2I, D11E, Q65E, K92R, R101K, D104N, L105M, S113T, V129I
modifications: 0_5D7
notes: GAT polypeptide
B20: SEQ ID NO: 453: GAT polypeptide (protein)
chain: B18 chain with L2I, A28V, E63D, D83E, S89T, K92R, L97I
modifications: 10_4D5
notes: GAT polypeptide
B21: SEQ ID NO: 461: GAT polypeptide (protein)
chain: B18 chain with L2I, I26L, A28V, R47G, S62P, E63D, K92R, V129I, D131E
modifications: 11_3C12
notes: GAT polypeptide
B22: SEQ ID NO: 460: GAT polypeptide (protein)
chain: B18 chain with L2I, Y31F, T33S, F45Y, K92R, L97I, L105M
modifications: 11_3B5
notes: GAT polypeptide
B23: SEQ ID NO: 447: GAT polypeptide (protein)
chain: B18 chain with T33S, F40L, E63D, Y81F, K92R, L97I, E128K
modifications: 0_6B4
notes: GAT polypeptide
B24: SEQ ID NO: 443: GAT polypeptide (protein)
chain: B18 chain with L2I, R18K, I26L, E63G, D83E, L90I, Q96E, L97I, R101K, V129I
modifications: 0_5C4
notes: GAT polypeptide
B25: SEQ ID NO: 441: GAT polypeptide (protein)
chain: B18 chain with P6L, I26L, E63D, Q65E, Y81F, Q96E, L97I, D104N
modifications: 0_5B4
notes: GAT polypeptide
B26: SEQ ID NO: 455: GAT polypeptide (protein)
chain: B18 chain with L2I, A28V, Y81F, D83E, K92R, L97I, V129I, I145L
modifications: 10_4F9
notes: GAT polypeptide
B27: SEQ ID NO: 449: GAT polypeptide (protein)
chain: B18 chain with L2I, T33S, F45Y, E63D, Y81F, K92R, L97I, D131E
modifications: 0_6D11
notes: GAT polypeptide
B28: SEQ ID NO: 459: GAT polypeptide (protein)
chain: MLEVKPINAEDTYELRHRILRPNQPIEACMFETDLLRGAFHLGGFYRGKLISIASFHQAEHSDLQGQKQYQLRGMATLEGFREQKAGSTLIRHAEEILRKRGADLLWCNARTSASGYYKRLGFSEQGEIFDTPPVGPHILMYKRLT
modifications: 11_3B1
notes: GAT polypeptide

Experiment: Standard protocol for determination of kcat and KM (continuous spectrophotometric assay, Acetyl CoA hydrolysis at 235 nm)
Type: biochemical
Details: purified protein; about 23° C.; 20 mM HEPES pH 6.8, 10% ethylene glycol, 0.2 mM acetyl CoA
Summary of the method: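 KM from initial rates over 0.125–10 mM glyphosate, fitted by Lineweaver-Burke transformation of Michaelis-Menten; kcat/KM computed as kcat divided by KM. Continuous spectrophotometric read of acetyl-CoA hydrolysis at 235 nm.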

Molecule | Kcat [s⁻¹]
B1 | 0.217
B2 | 1.688
B3 | 0.067
B4 | 1.27
B5 | 1.44
B6 | 3.17
B7 | 0.9277
B8 | 1.16
B9 | 3.567
B10 | 2.9442
B11 | 2.92
B12 | 3.074
B13 | 3.65
B14 | 3.8507
B15 | 2.38
B16 | 3.73
B17 | 3.8
B18 | 2.38
B19 | 4.07
B20 | 1.379
B21 | 0.8178
B22 | 3.2435
B23 | 4.2
B24 | 3.42
B25 | 3
B26 | 0.9232
B27 | 3.53
B28 | 3.6662

Same assay, conditions: purified protein; about 23° C.; pH 6.8; 0.2 mM acetyl CoA; glyphosate 0.125 to 10 mM

Molecule | Km [µM]
B1 | 2500
B2 | 900
B3 | 2300
B4 | 1900
B5 | 1600
B6 | 680
B9 | 220
B10 | 580
B11 | 340
B12 | 210
B13 | 540
B14 | 200
B15 | 270
B16 | 670
B17 | 470
B18 | 390
B19 | 1100
B22 | 260
B23 | 800
B24 | 670
B25 | 600
B27 | 440
B28 | 630
